From publication PMC10104018

How the values were obtained:
[1] = molecular target: T1, RGG-GFP-RGG, TXTL-expressed (UniProt D0PV95 1-168); assay: confocal fluorescence co-localization to condensates
T1 chain: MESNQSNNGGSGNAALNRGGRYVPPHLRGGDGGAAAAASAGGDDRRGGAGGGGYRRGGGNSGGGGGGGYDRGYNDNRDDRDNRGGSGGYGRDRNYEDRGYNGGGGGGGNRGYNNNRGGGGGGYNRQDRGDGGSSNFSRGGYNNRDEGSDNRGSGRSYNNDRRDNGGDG

[2] = molecular target: T2, RGG-GFP-RGG (His), purified (UniProt D0PV95 1-168); assay: as above
T2 chain: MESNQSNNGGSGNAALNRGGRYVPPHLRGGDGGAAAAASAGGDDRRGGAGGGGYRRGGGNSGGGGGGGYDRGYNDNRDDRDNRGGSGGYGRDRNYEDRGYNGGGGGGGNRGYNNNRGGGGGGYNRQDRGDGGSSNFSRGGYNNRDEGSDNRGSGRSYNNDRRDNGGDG

UUUUUUUUUUUUUUU (ssRNA) [Cy5-U15]: binds [1]; binds [2].
